Source: article PMC8298264, “Function of cofactor Akirin2 in the regulation of gene expression in model human neutrophil-like HL60 cells” (Bioscience Reports, 2021)

B1: sp¦Q9NRP0¦OSTC_HUMAN (protein, UniProt Q9NRP0 1-149, looked up)
Oligosaccharyltransferase …: METLYRVPFLVLECPNLKLKKPPWLHMPSAMTVYALVVVSYFLITGGIIYDVIVEPPSVGSMTDEHGHQRPVAFLAYRVNGQYIMEGLASSFLFTMGGLGFIILDRSNAPNIPKLNRFLLLFIGFVCVLLSFFMARVFMRMKLPGYLMG
B2: sp¦P61006¦RAB8A_HUMAN (protein, UniProt P61006 1-204, looked up)
Ras-related protein Rab-8A: MAKTYDYLFKLLLIGDSGVGKTCVLFRFSEDAFNSTFISTIGIDFKIRTIELDGKRIKLQIWDTAGQERFRTITTAYYRGAMGIMLVYDITNEKSFDNIRNWIRNIEEHASADVEKMILGNKCDVNDKRQVSKERGEKLALDYGIKFMETSAKANINVENAFFTLARDIKAKMDKKLEGNSPQGSNQGVKITPDQQKRSSFFRC
B3: sp¦Q15397¦PUM3_HUMAN (protein, UniProt Q15397 1-648, looked up)
Pumilio homolog 3: MEVKGKKQFTGKSTKTAQEKNRFHKNSDSGSSKTFPTRKVAKEGGPKVTSRNFEKSITKLGKKGVKQFKNKQQGDKSPKNKFQPANKFNKKRKFQPDGRSDESAAKKPKWDDFKKKKKELKQSRQLSDKTNYDIVVRAKQMWEILRRKDCDKEKRVKLMSDLQKLIQGKIKTIAFAHDSTRVIQCYIQYGNEEQRKQAFEELRDDLVELSKAKYSRNIVKKFLMYGSKPQIAEIIRSFKGHVRKMLRHAEASAIVEYAYNDKAILEQRNMLTEELYGNTFQLYKSADHRTLDKVLEVQPEKLELIMDEMKQILTPMAQKEAVIKHSLVHKVFLDFFTYAPPKLRSEMIEAIREAVVYLAHTHDGARVAMHCLWHGTPKDRKVIVKTMKTYVEKVANGQYSHLVLLAAFDCIDDTKLVKQIIISEIISSLPSIVNDKYGRKVLLYLLSPRDPAHTVREIIEVLQKGDGNAHSKKDTEVRRRELLESISPALLSYLQEHAQEVVLDKSACVLVSDILGSATGDVQPTMNAIASLAATGLHPGGKDGELHIAEHPAGHLVLKWLIEQDKKMKENGREGCFAKTLVEHVGMKNLKSWASVNRGAIILSSLLQSCDLEVANKVKAALKSLIPTLEKTKSTSKGIEILLEKLST
B4: sp¦Q8TCJ2¦STT3B_HUMAN (protein, UniProt Q8TCJ2 2-826, looked up)
Dolichyl-diphosphooligosacchar …: AEPSAPESKHKSSLNSSPWSGLMALGNSRHGHHGPGAQCAHKAAGGAAPPKPAPAGLSGGLSQPAGWQSLLSFTILFLAWLAGFSSRLFAVIRFESIIHEFDPWFNYRSTHHLASHGFYEFLNWFDERAWYPLGRIVGGTVYPGLMITAGLIHWILNTLNITVHIRDVCVFLAPTFSGLTSISTFLLTRELWNQGAGLLAACFIAIVPGYISRSVAGSFDNEGIAIFALQFTYYLWVKSVKTGSVFWTMCCCLSYFYMVSAWGGYVFIINLIPLHVFVLLLMQRYSKRVYIAYSTFYIVGLILSMQIPFVGFQPIRTSEHMAAAGVFALLQAYAFLQYLRDRLTKQEFQTLFFLGVSLAAGAVFLSVIYLTYTGYIAPWSGRFYSLWDTGYAKIHIPIIASVSEHQPTTWVSFFFDLHILVCTFPAGLWFCIKNINDERVFVALYAISAVYFAGVMVRLMLTLTPVVCMLSAIAFSNVFEHYLGDDMKRENPPVEDSSDEDDKRNQGNLYDKAGKVRKHATEQEKTEEGLGPNIKSIVTMLMLMLLMMFAVHCTWVTSNAYSSPSVVLASYNHDGTRNILDDFREAYFWLRQNTDEHARVMSWWDYGYQIAGMANRTTLVDNNTWNNSHIALVGKAMSSNETAAYKIMRTLDVDYVLVIFGGVIGYSGDDINKFLWMVRIAEGEHPKDIRESDYFTPQGEFRVDKAGSPTLLNCLMYKMSYYRFGEMQLDFRTPPGFDRTRNAEIGNKDIKFKHLEEAFTSEHWLVRIYKVKAPDNRETLDHKPRVTNIFPKQKYLSKKTTKRKRGYIKNKLVFKKGKKISKKTV
B5: sp¦P35908¦K22E_HUMAN (protein, UniProt P35908 1-639, looked up)
Keratin, type II cytoskeletal …: MSCQISCKSRGRGGGGGGFRGFSSGSAVVSGGSRRSTSSFSCLSRHGGGGGGFGGGGFGSRSLVGLGGTKSISISVAGGGGGFGAAGGFGGRGGGFGGGSSFGGGSGFSGGGFGGGGFGGGRFGGFGGPGGVGGLGGPGGFGPGGYPGGIHEVSVNQSLLQPLNVKVDPEIQNVKAQEREQIKTLNNKFASFIDKVRFLEQQNQVLQTKWELLQQMNVGTRPINLEPIFQGYIDSLKRYLDGLTAERTSQNSELNNMQDLVEDYKKKYEDEINKRTAAENDFVTLKKDVDNAYMIKVELQSKVDLLNQEIEFLKVLYDAEISQIHQSVTDTNVILSMDNSRNLDLDSIIAEVKAQYEEIAQRSKEEAEALYHSKYEELQVTVGRHGDSLKEIKIEISELNRVIQRLQGEIAHVKKQCKNVQDAIADAEQRGEHALKDARNKLNDLEEALQQAKEDLARLLRDYQELMNVKLALDVEIATYRKLLEGEECRMSGDLSSNVTVSVTSSTISSNVASKAAFGGSGGRGSSSGGGYSSGSSSYGSGGRQSGSRGGSGGGGSISGGGYGSGGGSGGRYGSGGGSKGGSISGGGYGSGGGKHSSGGGSRGGSSSGGGYGSGGGGSSSVKGSSGEAFGSSVTFSFR
B6: sp¦P57740¦NU107_HUMAN (protein, UniProt P57740 1-925, looked up)
Nuclear pore complex protein …: MDRSGFGEISSPVIREAEVTRTARKQSAQKRVLLQASQDENFGNTTPRNQVIPRTPSSFRQPFTPTSRSLLRQPDISCILGTGGKSPRLTQSSGFFGNLSMVTNLDDSNWAAAFSSQRSGLFTNTEPHSITEDVTISAVMLREDDPGEAASMSMFSDFLQSFLKHSSSTVFDLVEEYENICGSQVNILSKIVSRATPGLQKFSKTASMLWLLQQEMVTWRLLASLYRDRIQSALEEESVFAVTAVNASEKTVVEALFQRDSLVRQSQLVVDWLESIAKDEIGEFSDNIEFYAKSVYWENTLHTLKQRQLTSYVGSVRPLVTELDPDAPIRQKMPLDDLDREDEVRLLKYLFTLIRAGMTEEAQRLCKRCGQAWRAATLEGWKLYHDPNVNGGTELEPVEGNPYRRIWKISCWRMAEDELFNRYERAIYAALSGNLKQLLPVCDTWEDTVWAYFRVMVDSLVEQEIQTSVATLDETEELPREYLGANWTLEKVFEELQATDKKRVLEENQEHYHIVQKFLILGDIDGLMDEFSKWLSKSRNNLPGHLLRFMTHLILFFRTLGLQTKEEVSIEVLKTYIQLLIREKHTNLIAFYTCHLPQDLAVAQYALFLESVTEFEQRHHCLELAKEADLDVATITKTVVENIRKKDNGEFSHHDLAPALDTGTTEEDRLKIDVIDWLVFDPAQRAEALKQGNAIMRKFLASKKHEAAKEVFVKIPQDSIAEIYNQCEEQGMESPLPAEDDNAIREHLCIRAYLEAHETFNEWFKHMNSVPQKPALIPQPTFTEKVAHEHKEKKYEMDFGIWKGHLDALTADVKEKMYNVLLFVDGGWMVDVREDAKEDHERTHQMVLLRKLCLPMLCFLLHTILHSTGQYQECLQLADMVSSERHKLYLVFSKEELRKLLQKLRESSLMLLDQGLDPLGYEIQL
B7: sp¦P46977¦STT3A_HUMAN (protein, UniProt P46977 1-705, looked up)
Dolichyl-diphosphooligosacchar …: MTKFGFLRLSYEKQDTLLKLLILSMAAVLSFSTRLFAVLRFESVIHEFDPYFNYRTTRFLAEEGFYKFHNWFDDRAWYPLGRIIGGTIYPGLMITSAAIYHVLHFFHITIDIRNVCVFLAPLFSSFTTIVTYHLTKELKDAGAGLLAAAMIAVVPGYISRSVAGSYDNEGIAIFCMLLTYYMWIKAVKTGSICWAAKCALAYFYMVSSWGGYVFLINLIPLHVLVLMLTGRFSHRIYVAYCTVYCLGTILSMQISFVGFQPVLSSEHMAAFGVFGLCQIHAFVDYLRSKLNPQQFEVLFRSVISLVGFVLLTVGALLMLTGKISPWTGRFYSLLDPSYAKNNIPIIASVSEHQPTTWSSYYFDLQLLVFMFPVGLYYCFSNLSDARIFIIMYGVTSMYFSAVMVRLMLVLAPVMCILSGIGVSQVLSTYMKNLDISRPDKKSKKQQDSTYPIKNEVASGMILVMAFFLITYTFHSTWVTSEAYSSPSIVLSARGGDGSRIIFDDFREAYYWLRHNTPEDAKVMSWWDYGYQITAMANRTILVDNNTWNNTHISRVGQAMASTEEKAYEIMRELDVSYVLVIFGGLTGYSSDDINKFLWMVRIGGSTDTGKHIKENDYYTPTGEFRVDREGSPVLLNCLMYKMCYYRFGQVYTEAKRPPGFDRVRNAEIGNKDFELDVLEEAYTTEHWLVRIYKVKDLDNRGLSRT
B8: sp¦Q15907¦RB11B_HUMAN (protein, UniProt Q15907 2-215, looked up)
Ras-related protein Rab-11B: GTRDDEYDYLFKVVLIGDSGVGKSNLLSRFTRNEFNLESKSTIGVEFATRSIQVDGKTIKAQIWDTAGQERYRAITSAYYRGAVGALLVYDIAKHLTYENVERWLKELRDHADSNIVIMLVGNKSDLRHLRAVPTDEARAFAEKNNLSFIETSALDSTNVEEAFKNILTEIYRIVSQKQIADRAAHDESPGNNVVDISVPPTTDGQKPNKLQCC
B9: sp¦Q14683¦SMC1A_HUMAN (protein, UniProt Q14683 1-1233, looked up)
Structural maintenance of …: MGFLKLIEIENFKSYKGRQIIGPFQRFTAIIGPNGSGKSNLMDAISFVLGEKTSNLRVKTLRDLIHGAPVGKPAANRAFVSMVYSEEGAEDRTFARVIVGGSSEYKINNKVVQLHEYSEELEKLGILIKARNFLVFQGAVESIAMKNPKERTALFEEISRSGELAQEYDKRKKEMVKAEEDTQFNYHRKKNIAAERKEAKQEKEEADRYQRLKDEVVRAQVQLQLFKLYHNEVEIEKLNKELASKNKEIEKDKKRMDKVEDELKEKKKELGKMMREQQQIEKEIKEKDSELNQKRPQYIKAKENTSHKIKKLEAAKKSLQNAQKHYKKRKGDMDELEKEMLSVEKARQEFEERMEEESQSQGRDLTLEENQVKKYHRLKEEASKRAATLAQELEKFNRDQKADQDRLDLEERKKVETEAKIKQKLREIEENQKRIEKLEEYITTSKQSLEEQKKLEGELTEEVEMAKRRIDEINKELNQVMEQLGDARIDRQESSRQQRKAEIMESIKRLYPGSVYGRLIDLCQPTQKKYQIAVTKVLGKNMDAIIVDSEKTGRDCIQYIKEQRGEPETFLPLDYLEVKPTDEKLRELKGAKLVIDVIRYEPPHIKKALQYACGNALVCDNVEDARRIAFGGHQRHKTVALDGTLFQKSGVISGGASDLKAKARRWDEKAVDKLKEKKERLTEELKEQMKAKRKEAELRQVQSQAHGLQMRLKYSQSDLEQTKTRHLALNLQEKSKLESELANFGPRINDIKRIIQSREREMKDLKEKMNQVEDEVFEEFCREIGVRNIREFEEEKVKRQNEIAKKRLEFENQKTRLGIQLDFEKNQLKEDQDKVHMWEQTVKKDENEIEKLKKEEQRHMKIIDETMAQLQDLKNQHLAKKSEVNDKNHEMEEIRKKLGGANKEMTHLQKEVTAIETKLEQKRSDRHNLLQACKMQDIKLPLSKGTMDDISQEEGSSQGEDSVSGSQRISSIYAREALIEIDYGDLCEDLKDAQAEEEIKQEMNTLQQKLNEQQSVLQRIAAPNMKAMEKLESVRDKFQETSDEFEAARKRAKKAKQAFEQIKKERFDRFNACFESVATNIDEIYKALSRNSSAQAFLGPENPEEPYLDGINYNCVAPGKRFRPMDNLSGGEKTVAALALLFAIHSYKPAPFFVLDEIDAALDNTNIGKVANYIKEQSTCNFQAIVISLKEEFYTKAESLIGVYPEQGDCVISKVLTFDLTKYPDANPNPNEQ

system: human HL60 cells; assay: SWATH-MS proteomics, differential protein representation, akirin2 KO vs WT HL60 cells; type: cell-based; details: KO vs WT; akirin2 KO vs WT HL60 cells; sheet "Under-represented in KO"
Outline: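 Differential representation compares akirin2 KO with WT HL60 across three biological replicates, 5 µg digest each, acquired by data-independent SWATH on a 120-min gradient. Library built from combined IDA runs searched with Paragon; proteins accepted at 1% FDR, with total-area-sum normalization.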

| Molecule | Fold Change | Log (Fold Change) |
| --- | --- | --- |
| B1 | 0.6247 | -0.2043 |
| B2 | 0.62 | -0.2076 |
| B3 | 0.6182 | -0.2089 |
| B4 | 0.6204 | -0.2073 |
| B5 | 0.6196 | -0.2079 |

same assay, conditions: akirin2 KO vs WT HL60 cells; sheet "Under-represented in KO"

| Molecule | Fold Change | Log (Fold Change) |
| --- | --- | --- |
| B6 | 0.6316 | -0.1995 |
| B7 | 0.6295 | -0.201 |
| B8 | 0.6332 | -0.1984 |
| B9 | 0.2754 | -0.5601 |
